Experimental data taken from the supplement of paper PMC10126150.
± gives the standard deviation of the averaged measurements.

System: ATP
Assay: switch fluorescence ratio, 500 uM ATP over buffer (Cy3 cluster intensity, sum of 5 cycles each) (fold (ratio)); higher = stronger signal-on switching upon ATP binding; sequences stand for … in TCGTCGGCAGCGTCAGATGTGTATAAGAGACAGTTTTTTTTTTTTTTTTTTTTTTTTT…TC
Conditions: aptamer strand: ATP DNA aptamer (quencher-CACCTGGGGGAGTATTGCGGAGGAAGG + anchor), 100 nM annealed; ATP concentration: 500 uM
In short: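 The fluorescence ratio divides summed target-cycle Cy3 intensity by summed buffer-cycle Cy3 intensity for each cluster and is averaged per switch-domain sequence. Cy3-labelled switching-strand clusters on a modified Illumina MiSeq flow-cell were annealed to 100 nM quencher-labelled ATP aptamer, then imaged in selection buffer and again after 15 min with 500 uM ATP at 22 °C. Five such cycles were run, with NaOH stripping and re-annealing between them, and clusters outside 100-1000 RFU were excluded.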
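Also: ATP exposure 15 min at 22 °C before imaging.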

| Sequence | switch fluorescence ratio |
| --- | --- |
| CTTCGGAGTG | 1.02 ± 0.023 |
| CTTCGGTGTG | 1.04 ± 0.13 |
| CTTCGTATGG | 1 ± 0.029 |
| CTTCTAGGGG | 1.05 ± 0.011 |
| CTTCTATGTT | 0.984 ± 0.002 |
| CTTCTGTGGG | 1.027 ± 0.0036 |
| CTTCTTAAGA | 0.984 ± 0.046 |
| CTTCTTGCTG | 0.972 ± 0.011 |
| CTTGAAAGGG | 0.997 ± 0.02 |
| CTTGAATACT | 1.05 ± 0.03 |
| CTTGACAAGG | 0.982 ± 0.014 |
| CTTGACATGT | 0.976 ± 0.016 |
| CTTGAGGGGG | 1.04 ± 0.092 |
| CTTGATGCAG | 0.996 ± 0.053 |
| CTTGATTTGA | 1.001 ± 0.0089 |
| CTTGCATTTT | 1.04 ± 0.031 |
| CTTGCCGCGC | 1.13 ± 0.017 |
| CTTGCGTCAC | 1.18 ± 0.044 |
| CTTGCTGGTT | 0.999 ± 0.028 |
| CTTGGAGGGA | 1.02 ± 0.03 |
| CTTGGAGTTT | 1 ± 0.034 |
| CTTGGGAATT | 0.979 ± 0.044 |
| CTTGGGAGAA | 0.9961 ± 0.0032 |
| CTTGGGCCCT | 0.979 ± 0.033 |
| CTTGGGTTGG | 0.997 ± 0.028 |

| Sequence | switch fluorescence ratio |
| --- | --- |
| CTTGGTCTGA | 0.994 ± 0.024 |
| CTTGGTGGAC | 0.97 ± 0.048 |
| CTTGGTTAGT | 1.03 ± 0.056 |
| CTTGTAAAGG | 0.9825 ± 0.00043 |
| CTTGTAGGGT | 1.01 ± 0.021 |
| CTTGTATCGT | 0.971 ± 0.015 |
| CTTGTATTGG | 1.03 ± 0.072 |
| CTTGTCATGA | 1.02 ± 0.017 |
| CTTGTTATTG | 0.9602 ± 0.0071 |
| CTTGTTGATG | 1 ± 0.036 |
| CTTGTTGTTC | 0.9981 ± 0.0063 |
| CTTTAATCC | 1.27 ± 0.48 |
| CTTTCATTTT | 0.972 ± 0.036 |
| CTTTCCGAAG | 2.72 ± 0.03 |
| CTTTCGTCTG | 1.01 ± 0.035 |
| CTTTCGTGGA | 1 ± 0.022 |
| CTTTCTAGCG | 0.995 ± 0.032 |
| CTTTCTATGT | 0.986 ± 0.029 |
| CTTTCTTG | 1.01 ± 0.043 |
| CTTTGAATGT | 0.983 ± 0.03 |
| CTTTGAGGTG | 1.04 ± 0.069 |
| CTTTGGCAGA | 1.03 ± 0.043 |
| CTTTGGCAGC | 1.06 ± 0.017 |
| CTTTGGCCGG | 1.011 ± 0.0087 |
| CTTTGGCGCC | 0.986 ± 0.014 |

| Sequence | switch fluorescence ratio |
| --- | --- |
| CTTTGGCTGA | 0.998 ± 0.025 |
| CTTTGGGGTT | 1.01 ± 0.032 |
| CTTTGTTGG | 0.9646 ± 0.0024 |
| CTTTTAATTT | 1.04 ± 0.022 |
| CTTTTAGCTG | 1 ± 0.019 |
| CTTTTAGGCT | 1.02 ± 0.092 |
| CTTTTAGTTA | 1.01 ± 0.015 |
| CTTTTATTTT | 1.03 ± 0.012 |
| CTTTTCATTG | 1.06 ± 0.089 |
| CTTTTCGGCT | 1.04 ± 0.028 |
| CTTTTCGGGT | 0.964 ± 0.033 |
| CTTTTCTTGG | 0.991 ± 0.03 |
| CTTTTGACTG | 1.05 ± 0.043 |
| CTTTTGGGAC | 0.987 ± 0.025 |
| CTTTTTAATG | 0.98 ± 0.028 |
| CTTTTTAGGT | 0.998 ± 0.012 |
| CTTTTTTATT | 1.01 ± 0.0085 |
| CTTTTTTGGT | 1.03 ± 0.015 |
| CTTTTTTTAG | 1.0383 ± 0.001 |
| CTTTTTTTGT | 0.995 ± 0.025 |
| GAAAAAAGGG | 1.11 ± 0.11 |
| GAAAAAATCC | 1.29 ± 0.34 |
| GAAAAAGCCG | 1.014 ± 0.0078 |
| GAAAAAGGAA | 1.024 ± 0.0041 |
| GAAAAAGGGG | 1.01 ± 0.019 |

| Sequence | switch fluorescence ratio |
| --- | --- |
| GAAAAATTGG | 1.03 ± 0.03 |
| GAAAACGGGG | 1.01 ± 0.02 |
| GAAAAGGTTC | 1.04 ± 0.044 |
| GAAAATGCAT | 0.99 ± 0.013 |
| GAAAATGTCG | 0.988 ± 0.07 |
| GAAAATGTTG | 0.991 ± 0.033 |
| GAAACAATTG | 0.9897 ± 0.0075 |
| GAAACAGGCA | 0.963 ± 0.017 |
| GAAACAGGGA | 1.06 ± 0.057 |
| GAAACATACG | 1.33 ± 0.026 |
| GAAAGATAAG | 0.985 ± 0.014 |
| GAAAGCGCGT | 0.965 ± 0.028 |
| GAAAGGAGGG | 1.03 ± 0.065 |
| GAAAGGATTA | 0.995 ± 0.063 |
| GAAAGGGATT | 1 ± 0.048 |
| GAAAGGGGTA | 1.01 ± 0.046 |
| GAAAGGGTTG | 0.968 ± 0.035 |
| GAAAGTGTGG | 0.971 ± 0.03 |
| GAAAGTGTTG | 0.9722 ± 0.0058 |
| GAAAGTTCGC | 1.02 ± 0.038 |
| GAAATACAAC | 1.04 ± 0.028 |
| GAAATACGCT | 1.08 ± 0.022 |
| GAAATATCAG | 1.01 ± 0.029 |
| GAAATATGTT | 0.999 ± 0.014 |
| GAAATATTAG | 1.02 ± 0.032 |

| Sequence | switch fluorescence ratio |
| --- | --- |
| GAAATGGTAG | 0.99 ± 0.025 |
| GAAATGTGGT | 0.997 ± 0.02 |
| GAAATGTTAG | 0.966 ± 0.025 |
| GAAATGTTGG | 0.981 ± 0.024 |
| GAAATTAACT | 1.01 ± 0.033 |
| GAAATTGACC | 1.02 ± 0.038 |
| GAACATGCAG | 1.01 ± 0.03 |
| GAACCAGTAC | 1.82 ± 0.032 |
| GAACCAGTGC | 1.23 ± 0.083 |
| GAACCTGGAT | 1.16 ± 0.038 |
| GAACCTTCGT | 1.05 ± 0.096 |
| GAACGAACGG | 1.08 ± 0.06 |
| GAACGAAGCA | 1.84 ± 0.051 |
| GAACGAGGGG | 1.01 ± 0.019 |
| GAACGAGGGT | 0.9676 ± 0.0013 |
| GAACGATACA | 1.334 ± 0.012 |
| GAACGGAGCT | 1.09 ± 0.052 |
| GAACGGAGGC | 0.978 ± 0.016 |
| GAACGGTGTG | 0.996 ± 0.0057 |
| GAACGTACAA | 1.587 ± 0.015 |
| GAACGTGGAG | 0.999 ± 0.02 |
| GAACTAAGCT | 1.01 ± 0.028 |
| GAACTAGGTG | 1.444 ± 0.0058 |
| GAACTCGGCG | 1.02 ± 0.031 |
| GAACTCGGTC | 0.994 ± 0.01 |

| Sequence | switch fluorescence ratio |
| --- | --- |
| GAACTTAGAT | 1.01 ± 0.04 |
| GAAGAATCTG | 1.03 ± 0.016 |
| GAAGAATTGT | 0.991 ± 0.038 |
| GAAGACCGGT | 0.985 ± 0.047 |
| GAAGACTACG | 1.04 ± 0.038 |
| GAAGAGCCTA | 0.986 ± 0.044 |
| GAAGATTGGG | 0.998 ± 0.053 |
| GAAGCAGGGG | 2.26 ± 0.74 |
| GAAGCATAAT | 1.27 ± 0.12 |
| GAAGCCGGAC | 1.12 ± 0.035 |
| GAAGCGCCGG | 1.01 ± 0.028 |
| GAAGCGGATG | 1.01 ± 0.031 |
| GAAGCTAGTA | 1.02 ± 0.024 |
| GAAGCTGAAT | 1.01 ± 0.0029 |
| GAAGCTGCCA | 1.031 ± 0.0067 |
| GAAGCTTGGG | 1.04 ± 0.025 |
| GAAGGAAAGA | 1.02 ± 0.037 |
| GAAGGAACCG | 1.025 ± 0.0063 |
| GAAGGAATAG | 1.66 ± 0.92 |
| GAAGGATATT | 1.018 ± 0.0039 |
| GAAGGCAGGG | 0.986 ± 0.029 |
| GAAGGCATTC | 1.06 ± 0.031 |
| GAAGGCCCTG | 1.01 ± 0.04 |
| GAAGGCCTGT | 0.9745 ± 0.0097 |
| GAAGGCTAAT | 0.974 ± 0.022 |

| Sequence | switch fluorescence ratio |
| --- | --- |
| GAAGGCTCCG | 1.04 ± 0.014 |
| GAAGGGATGC | 1.26 ± 0.073 |
| GAAGGGCATT | 0.9963 ± 0.0015 |
| GAAGGGCGGC | 1.01 ± 0.024 |
| GAAGGGGAAA | 1 ± 0.045 |
| GAAGGGGAAG | 0.998 ± 0.0043 |
| GAAGGGGCAA | 1.18 ± 0.13 |
| GAAGGGGGAC | 1.01 ± 0.046 |
| GAAGGGGGGC | 1.05 ± 0.18 |
| GAAGGGGTGT | 1.01 ± 0.031 |
| GAAGGTGAGT | 1.03 ± 0.014 |
| GAAGGTGATC | 1.01 ± 0.012 |
| GAAGGTGTGC | 1.07 ± 0.1 |
| GAAGGTTTGT | 1.002 ± 0.01 |
| GAAGTAACAG | 1.03 ± 0.027 |
| GAAGTAGAGT | 0.963 ± 0.028 |
| GAAGTAGCCT | 0.9985 ± 0.0086 |
| GAAGTGAGGT | 1.01 ± 0.016 |
| GAAGTGCGAG | 1.004 ± 0.008 |
| GAAGTGGGGT | 0.995 ± 0.015 |
| GAAGTGTGAA | 1 ± 0.022 |
| GAAGTTGCCC | 0.994 ± 0.028 |
| GAAGTTGGGA | 0.9857 ± 0.0095 |
| GAAGTTTGTG | 1.019 ± 0.0075 |
| GAAGTTTGTT | 0.98 ± 0.026 |

| Sequence | switch fluorescence ratio |
| --- | --- |
| GAATAAAGTT | 0.986 ± 0.046 |
| GAATAAATAG | 1 ± 0.024 |
| GAATAACTAG | 0.9776 ± 0.0088 |
| GAATAGGGGC | 0.965 ± 0.01 |
| GAATATACGC | 1.04 ± 0.021 |
| GAATATATGT | 1.04 ± 0.028 |
| GAATATTTTT | 1.02 ± 0.034 |
| GAATCAAAAA | 1 ± 0.088 |
| GAATCATACA | 1.05 ± 0.074 |
| GAATCGTAGC | 1 ± 0.022 |
| GAATCGTGAG | 0.999 ± 0.04 |
| GAATCTATTC | 1.01 ± 0.061 |
| GAATCTTAAA | 0.997 ± 0.026 |
| GAATGAAGGT | 0.985 ± 0.013 |
| GAATGAGCGT | 0.9799 ± 0.003 |
| GAATGAGTTG | 0.977 ± 0.02 |
| GAATGCATTT | 1.02 ± 0.038 |
| GAATGCGGGC | 0.99 ± 0.017 |
| GAATGCTGGT | 0.966 ± 0.023 |
| GAATGGATGG | 1 ± 0.011 |
| GAATGGGGAT | 1.01 ± 0.076 |
| GAATGGGGCC | 1.01 ± 0.035 |
| GAATGGGTAA | 1.02 ± 0.033 |
| GAATGTATTG | 1.013 ± 0.006 |
| GAATGTCTGC | 0.99 ± 0.037 |
